Assay results published in the DeepSol protein solubility set.

Experiment: soluble on expression in E. coli; label from the status in PepcDB or PDB records

Row | Sequence | soluble on expression in E. coli
1 | MKLNKQNLTQLAPEVKLPAYTLADTRQGIAHIGVGGFHRAHQAYYTDALMNTGEGLDWSICGVGLRSEDRKARDDLAGQDYLFTLYELGDTDDTEVRVIGSISDMLLAEDSAQALIDKLASPEIRIVSLTITEGGYCIDDSNGEFMAHLPQIQHDLAHPSSPKTVFGFICAALTQRRAAGIPAFTVMSCDNLPHNGAVTRKALLAFAALHNAELHDWIKAHVSFPNAMVDRITPMTSTAHRLQLHDEHGIDDAWPVVCEPFVQWVLEDKFVNGRPAWEKVGVQFTDDVTPYEEMKIGLLNGSHLALTYLGFLKGYRFVHETMNDPLFVAYMRAYMDLDVTPNLAPVPGIDLTDYKQTLVDRFSNQAIADQLERVCSDGSSKFPKFTVPTINRLIADGRETERAALVVAAWALYLKGVDENGVSYTIPDPRAEFCQGLVSDDALISQRLLAVEEIFGTAIPNSPEFVAAFERCYGSLRDNGVTTTLKHLLKKPV | soluble
2 | MGSDKIHHHHHHMFEEIAYMILADGNEKSRFEANAYLRAARSLRSITEDVEDIYNRGGIEALTSVEGIGKKIASYIEEYIKTGRIKRYDDLKIRYPVDFRDLSRVQGLGPRKIVSLYKYAGVKNIDDLKAALADHRIASIPGFGEKSEKEIAENIQIAEMSFRRIPLPQGYRTAMEIADEIERAAGTVRVSVAGSIRRMRDTVGDIDLLCVTSDPPRAIAAFTGSKHCQRVVSSGEKKVTIATDAGVTCDLRIIDKGSFGSALQYFTGSKDHNIKLRKIAIDRGLKLNEYGLFRGNSNLVENQGEEKIYAELGMQYIPPELREDRGEIDRAISMTLPELVEAGDIRGDLYISYEFIRKYGADVLKKMERLQYFGVVLGSPEEKEGIKSVMNDGRIFLGIELTSKTYAEDAGEFDFTVLDLSGFPDEASARGAIESVKPTFIRNVTGRTFSSGRKMDPANIFEAAAKSGSAVMITASNDAFDPVAEDIMPHREGLMFALASFAQRPDDLGDMTFGIGIARRAWISKDRIINTMDYEKIAKIMRRP | not soluble
3 | MKDPRIEKLAYNLINYSIRLQKGEKVLIENFGLQKELVTALVKEAYAAGGFPFVSLKDHQVDRSLLMGATEEHFEQIAAYEASVMKDMDAYIGLRSGDNINEQADVPSERMKVHGQTVGKKVHRDIRVPKTRWVVLRYPNASMAQLAKMSTEAFEDFYFEVCNLDYGKMDKAMDSLVTLMNKTDKVRLTGPGTDLTFSIKDIPAIKCSGHLNIPDGEVYSAPVRDSVNGTVSYNTPSPYNGYTFENVQLKFENGQIVEATANDSERINKIFDTDEGARYVGEFAIGVNPYILHPMGDILFDEKIDGSFHFTPGQAYDDAWNGNNSNIHWDLVCIQRPEYGGGEIYFDDVLIRKDGRFVVPELEALNPENLK | not soluble
4 | MTDGPIKVNSEIGALKTVLLKRPGKELENLVPDYLDGLLFDDIPYLEVAQKEHDHFAQVLREEGVEVLYLEKLAAESIENPQVRSEFIDDVLAESKKTILGHEEEIKTLFATLSNQELVDKIMSGVRKEEINPKCTHLVEYMDDKYPFYLDPMPNLYFTRDPQASIGHGITINRMFWRARRRESIFIQYIVKHHPRFKDANIPIWLDRDCPFNIEGGDELVLSKDVLAIGVSERTSAQAIEKLARRIFENPQATFKKVVAIEIPTSRTFMHLDTVFTMIDYDKFTMHSAILKAEGNMNIFIIEYDDVNKDIAIKQSSHLKDTLEDVLGIDDIQFIPTGNGDVIDGAREQWNDGSNTLCIRPGVVVTYDRNYVSNDLLRQKGIKVIEISGSELVRGRGGPRCMSQPLFREDI | not soluble
5 | MGSDKIHHHHHHMDEQVTILHTNDIHSHFENWPRIQRYLLTEREQRRQSGSHVITVDLGDAVDRAHPLSEATQGQANVALLNAIGYDAVTIGNNEGLGLTHAALNRLYDRANFDVVLDNLTDTATQRPPQWALPAKIITTARGTRVLLLAFTAPFTLTYPLNGWTPASVKTRFPELLRQYAGQYDVLIVMSHLGINVDRWLAKQFPVIDVVIGSHTHHLLVNGELKNGVLIAAAGKYGEYIGRIELTIDHQHHVKAAAAHTVATASLPIVAGDETLITGWEQQGETLLTRQVVAKVPTQLRPHWHHASDLTALGLAAITDYAKTDLGMLNGGLFMRDLPAGMVNRNDLHTMLPHAMHVIRVTLSGEALWRLVYEMELVRPFLNKFPIKGMGFRGQVFGYIQYQGLTWKTGQHTLLVNGQPVNRQQTYQIALLDHDLFIPFFPTINISGRTEILFEAMLRTVVGDYLMRRWPVK | not soluble
6 | MLLQELLGIDEDIYLIEESYTSQRNPELTLQYLNRFLNFPDIENIRIIRVRQAGHTTGLLFFNPADEDVPVDFWSVFTGAFAQPALKEKFETLADSLLNLTSPEKDIELLHETWFNAVNEYYSLMLVNRNLCTSCSVKPESYGNVFSENRIKRVAEILELLRKKGYYPEGRLLEVCCGNGMSTLALYRSGLDPLAIEINKCTICQGLEQGVLNPQRVMVMDAAAVSRYFEPGSFDAVMGFMLGLVYEFNKGLWVRIVREAVSVAADGAVLLFTVSSKPEIEILADALFRAGVDGEIVDNTDSEGAYDQWLFVGRRQKNTST | not soluble
7 | MKEHIAAVHKQTIAQAAERLFLERGFDGTSISDICAASGYSRRTVYRYFDTKEEILYYIVANGLEQLRDRLTDIVQAEQPFLAKYEHICKAMRAYYEHCPISARAVHQFQPKALETVTPTMETIFSLGTAINDALARWIEQGIAEGVVRETADVMMTVYVFSAQLHALFDLVETKGAFLLPTLGKTKEQFFAYGQKMIFNSLAKEPLL | soluble
8 | EKDSQSPKIRQKYLRQYPELNSLIPAVVTEVREKEATAALQNGQIIIIPWEGMSWARPALKRGGWVGKSPTKAQQVVAAGDIIYVHPTEKSWQLAQIP | not soluble
9 | MNLNFIVPDINMTFGDMKFMGLNRERYVYDRENNKRTDVLESRIYNIASAVQGGQIEVTIPEYAGAKEIPPFADIELKNPKISAMATSQRDSTYANVMWKLEADDIVVKGGSSVKPAAATGGNEKKLEHHHHHH | not soluble
10 | KELWKLRKLRNHFSIQEEAELLVHSDSVGKGKVFCEKVAEESGVLAENPGFDRWQNSINPAHSDAEILDMYDSMVVSQQDKLATKVVSQHATES | not soluble
11 | MKHSVHFGAGNIGRGFIGEILFKNGFHIDFVDVNNQIIHALNEKGKYEIEIAQKGQSRIEVTNVAGINSKEHPEQVIEAIQKTDIITTAIGPNILPFIAELLAKGIEARRVAGNTQALDVMACENMIGGSQFLYQEVKKYLSPEGLTFADNYIGFPNAAVDRIVPAQSHEDSLFVVVEPFNEWVVETKRLKNPDLRLKDVHYEED | not soluble
12 | AAAKPADKALQAQLPEMALPREAAPRLDGLAAVLPQIHPAEAGKPAESFSLALPPSQPESWSGKLQAALGERLQAMPAQNMDRATLRLDPPSLGTLEISLRHQAGALTVELTASHGEVVRQLQGIGEALRQDLGGRQYTQVAVEVREGM | not soluble
13 | MSNEIYTAITIGPICKTLDKARSVKSFWTASYLFSWIMRELLERLPKEERPEGSFEVLSPHRDGKDVPEETSKKVGLFPDRLFAKGELEEEKLQEIKGKIFIELAEKFKNAFQDEKDGITRKIDTESDPKRKRELEEIQSRYSNAALKGEDIRKYLENYLSISCITVELSSDCNILEQLNSYLDTQELFNKASIQTDEDYMELFIEAPNNPFLKAYSQDRAFPSTSEIAVSGWEQDPPKDENGEVEYTQLTSKPGFRNCYKYLAVIKADGDGFGTYIKELKVDEEKEIKENGEKENELSRFTKSFFEFSVEVANELIQKTKAIPVYIGGDDLFLFAPVLEGNVEKDVFNLIKEIDDLFIQKEIGEGLSMSYGVSIFYYKSPMSEAIDIADSMLRKAKEEKEEKEKKKDTVAISIQKHSGQKIEFLLPCKHSTDKCKQETGLYKKATELIRAFKEDDSMLNSLIYWIEDMYETIFTDEVTLYQERINAVFDNFFDEEIHKENEVFFDLLKKFIHSMHHSEDTPRKLKDKKKLLHGILRYCQFVTAKKEK | not soluble
14 | MSLLGAAESTLEFYDLSHPWGHGAPAWPYFEDVQIERLHGMAKSRVLTQKITTVMHSGTHIDAPAHVVEGTPFLDEIPLSAFFGTGVVVSIPKGKWGMVTAEDLQNATPDIRPGDIVVVNTGWHHKYADSAEYYAYSPGFDKKAGEWFAAKGVKAVGTDTQALDHPLATAIAPHSPAEAQGGLLPWAVREYEAQTGRKVLDDFPDWEPCHRAILSQGIYGFENVGGDLDKVTGKRVTFAAFPWRWVGGDGCIVRLVAIVDPTGSYRIETGKAVEGHHHHHH | soluble
